Assay results: patent US20030072795A1 (US Dept. of Health and Human Services, published 2003)

T1: recombinant full-length human transglutaminase 1 (TGase 1) enzyme (human, UniProt P22735 1-817, constitutively N-myristoylated and S-myristoylated or S-palmitoylated on its amino-terminal 10 kDa portion)
T1 construct: also called TGase I; TGAaseI
T1 sequence (looked up): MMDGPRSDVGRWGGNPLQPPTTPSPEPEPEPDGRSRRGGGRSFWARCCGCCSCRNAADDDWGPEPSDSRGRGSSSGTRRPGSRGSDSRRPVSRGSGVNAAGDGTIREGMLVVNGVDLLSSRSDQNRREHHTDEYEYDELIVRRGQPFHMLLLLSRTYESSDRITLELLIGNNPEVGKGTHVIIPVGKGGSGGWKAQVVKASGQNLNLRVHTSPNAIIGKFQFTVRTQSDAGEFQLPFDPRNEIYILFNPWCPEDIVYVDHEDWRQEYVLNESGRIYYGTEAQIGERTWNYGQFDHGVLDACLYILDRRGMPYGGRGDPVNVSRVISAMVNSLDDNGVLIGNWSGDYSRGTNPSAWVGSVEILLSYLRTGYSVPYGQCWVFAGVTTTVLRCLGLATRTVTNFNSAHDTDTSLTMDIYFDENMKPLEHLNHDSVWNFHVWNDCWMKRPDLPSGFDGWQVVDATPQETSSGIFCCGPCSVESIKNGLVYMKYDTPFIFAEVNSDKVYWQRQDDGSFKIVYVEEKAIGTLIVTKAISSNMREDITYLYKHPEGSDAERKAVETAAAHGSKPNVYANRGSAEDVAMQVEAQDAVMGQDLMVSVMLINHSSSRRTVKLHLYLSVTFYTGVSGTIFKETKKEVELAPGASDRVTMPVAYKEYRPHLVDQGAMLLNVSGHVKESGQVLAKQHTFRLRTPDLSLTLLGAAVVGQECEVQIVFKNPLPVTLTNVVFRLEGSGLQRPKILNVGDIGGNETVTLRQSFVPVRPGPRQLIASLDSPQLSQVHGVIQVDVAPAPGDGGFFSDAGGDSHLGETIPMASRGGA

T2: recombinant human involucrin, P07476
T2 chain: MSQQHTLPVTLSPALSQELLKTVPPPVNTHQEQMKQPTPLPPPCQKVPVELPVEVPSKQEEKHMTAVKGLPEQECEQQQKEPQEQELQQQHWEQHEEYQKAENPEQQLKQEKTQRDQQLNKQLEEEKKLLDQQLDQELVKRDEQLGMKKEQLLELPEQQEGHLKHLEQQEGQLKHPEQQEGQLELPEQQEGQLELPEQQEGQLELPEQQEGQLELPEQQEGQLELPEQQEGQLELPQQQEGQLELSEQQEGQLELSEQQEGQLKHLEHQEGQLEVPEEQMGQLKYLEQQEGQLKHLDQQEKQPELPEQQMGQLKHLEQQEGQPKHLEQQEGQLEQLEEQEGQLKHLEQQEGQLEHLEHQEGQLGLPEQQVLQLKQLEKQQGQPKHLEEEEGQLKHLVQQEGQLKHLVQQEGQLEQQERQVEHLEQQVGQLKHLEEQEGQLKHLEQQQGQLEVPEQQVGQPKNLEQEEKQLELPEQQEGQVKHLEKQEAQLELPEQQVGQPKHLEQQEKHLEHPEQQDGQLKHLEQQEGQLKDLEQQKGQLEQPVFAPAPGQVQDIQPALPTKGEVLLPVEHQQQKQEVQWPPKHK

B1: recombinant human involucrin (other, UniProt P07476 1-585, looked up)
chain: T2 chain
notes: Substrate of TGase 1
B2: recombinant full-length human transglutaminase 1 (TGase 1) enzyme (protein)
chain: T1 sequence (looked up)

Key:
[1] = molecular target: T1, recombinant full-length human …; experiment: 14C-putrescine labelling of involucrin Gln residues by TGase 1, tryptic peptide sequencing
Procedure: In this first set of experiments, the Gln residues of involucrin that were cross-linked by recombinant TGase 1 were analyzed in the absence of natural insect cell membranes and SLV. ¹⁴C-putrescine incorporation into involucrin was analyzed following trypsin digestion and separation of tryptic peptides on a C18 reverse phase HPLC column. Labeled peptide peaks were dried and identified by sequencing. The PTH derivative of (-glutamylputrescine isopeptide formed in the TGase reaction was identified as a distinct peak in the Porton LP 3000 gas-phase sequencer. (FIG. 7). A total of 40 tryptic peptides were reliably separated, of which 29 (arrows) were labeled by ¹⁴C-putrescine in a reaction with solubilized recombinant TGase 1 and involucrin. (FIG. 8A). Sequencing identified […] labeled Gln residues (Table 2, panel A), with a total of about 20 mol of putrescine incorporated/mol of involucrin (Table 2, panel A). In contrast to the 29 Gln residues found to be involved in the binding of involucrin to soluble TGase 1 in the experiments above, membrane-bound TGase 1 binds to involucrin through five specific Gln residues, as discussed in the following section.

[2] = molecular target: T2, recombinant human involucrin, P07476
[3] = molecular target: recombinant human small proline rich protein 2 (SPR2)
[4] = molecular target: succinylated casein

Binder	binding result [1]	KM(app) of the protein substrate; 14C-putrescine incorporation by SLV-bound TGase 1 (15% PS) [2] [µM]	KM(app) of the protein substrate; 14C-putrescine incorporation by solubilized TGase 1 [2] [µM]	fold decrease of KM, SLV with 15% PS against solubilized TGase 1 and soluble involucrin [2]	kinetic parameters for involucrin as substrate, SLV-bound TGase 1 (0% PS) [2]	KM(app) of the protein substrate; 14C-putrescine incorporation by SLV-bound TGase 1 (0% PS) [3] [µM]	KM(app) of the protein substrate; 14C-putrescine incorporation by SLV-bound TGase 1 (15% PS) [3] [µM]	KM(app) of the protein substrate; 14C-putrescine incorporation by solubilized TGase 1 [3] [µM]	fold increase of KM after attachment of TGase 1 to SLV (0 or 15% PS) [3]	KM(app) of the protein substrate; 14C-putrescine incorporation by SLV-bound TGase 1 (0% PS) [4] [µM]	KM(app) of the protein substrate; 14C-putrescine incorporation by SLV-bound TGase 1 (15% PS) [4] [µM]	KM(app) of the protein substrate; 14C-putrescine incorporation by solubilized TGase 1 [4] [µM]
B1	binds											
B2		2.9	114	an approximately 40-fold decreased KM	The kinetic parameters for involucrin as a substrate were immeasurably low when the SLV were formulated in the absence of PS	25.3	22.8	13.2	differed only by about a two-fold increase in KM if the PS content of SLV was 0 or 15%	138	145	61.4
